A word on the Kd: it is the concentration at which binding is half-saturated. Higher therefore signals lower affinity.

Test [1] deals with T1, TLNRD1 four-helix domain (TLNRD1-4H, residues 143-273) (human, UniProt Q9H1K6 143-273).
T1 construct: Human TLNRD1 four-helix domain, residues 143-273, sub-cloned into pET151; Density was traced for residues 148-270 in PDB 6XZ3; also called 4H domain
In words: fluorescence polarisation; serial dilution of protein against 100 nM fluorescein- or BODIPY-TMR-coupled peptide; 20°C; one-site total binding equation; triplicate. To be noted: both partners purified. (Polarisation of emitted light reports the rotation of a fluorescent probe.)

A further test addresses T2, talin R7R8 rod domains (UniProt Q9Y490 1359-1659).
T2 construct: Talin R7R8 rod domains; the construct used in the assays is not described in the methods
The test is described as above. Conditions: both partners purified.

T2 sequence (Q9Y490 1359-1659): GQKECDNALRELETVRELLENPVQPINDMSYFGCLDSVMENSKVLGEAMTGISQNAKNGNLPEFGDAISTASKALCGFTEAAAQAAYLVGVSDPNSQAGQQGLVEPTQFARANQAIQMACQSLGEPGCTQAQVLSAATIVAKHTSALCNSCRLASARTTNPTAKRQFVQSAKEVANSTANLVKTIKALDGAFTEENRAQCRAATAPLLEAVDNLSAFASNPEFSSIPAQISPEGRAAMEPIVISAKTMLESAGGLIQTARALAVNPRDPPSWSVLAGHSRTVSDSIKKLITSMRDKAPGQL
T1 sequence (Q9H1K6 143-273): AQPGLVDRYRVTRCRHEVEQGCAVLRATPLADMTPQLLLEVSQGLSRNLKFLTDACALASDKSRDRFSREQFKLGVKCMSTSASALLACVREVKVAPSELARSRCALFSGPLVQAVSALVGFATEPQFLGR

B1: lamellipodin(20-46) peptide (peptide)
peptide: EDQDLDKMFGAWLGELDRLTQSLDSDKC
modifications: coupled with either a fluorescein or BODIPY-TMR dye (which one is not stated for this peptide)
notes: Lamellipodin residues 20-46; added C-terminal cysteine residue; source: synthetic peptide (GLBiochem, Shanghai)
As to B1, the dissociation constant Kd in test [1] was found to be 9 µM.

B2: KANK1(30-60) peptide, KN domain LD motif, BODIPY-labeled (peptide)
peptide: PYFVETPYGFQLDLDFVKYVDDIQKGNTIKKC
modifications: BODIPY-labeled
notes: KANK1 KN domain LD motif, residues 30-60; added C-terminal cysteine residue; also called KANK1 KN domain LD motif (residues 30-60); source: synthetic peptide (GLBiochem, Shanghai)
In the test with talin R7R8 rod domains, B2 showed a Kd of 0.35 µM.

For the origin of these results see publication PMC8287531 (The Journal of Cell Biology, 2021).
